Measurements as given in paper PMC5932363, “Proteinase 3 Interferes With C1q-Mediated Clearance of Apoptotic Cells” (Frontiers in Immunology, 2018).

Biological target: T1, C1q (complement protein C1q, intact) (human, UniProt P02745 23-245; P02746 28-253; P02747 29-245)
T1 construct: complement C1q subunit A, human; C1q purified from human serum; a hexamer of heterotrimers; complement C1q subunit B, human; complement C1q subunit C, human; also called intact C1q; whole C1q; source: purified from human serum; copies: 6 + 6 + 6
T1 sequence (P02745 23-245, chain 1 of 3): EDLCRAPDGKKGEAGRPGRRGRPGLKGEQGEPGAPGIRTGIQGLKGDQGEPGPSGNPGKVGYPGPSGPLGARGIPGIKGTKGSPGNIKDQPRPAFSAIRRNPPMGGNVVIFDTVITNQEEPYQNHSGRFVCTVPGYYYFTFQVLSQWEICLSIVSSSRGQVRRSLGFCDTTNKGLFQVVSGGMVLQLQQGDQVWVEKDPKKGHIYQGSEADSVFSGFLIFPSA
T1 sequence (P02746 28-253, chain 2 of 3): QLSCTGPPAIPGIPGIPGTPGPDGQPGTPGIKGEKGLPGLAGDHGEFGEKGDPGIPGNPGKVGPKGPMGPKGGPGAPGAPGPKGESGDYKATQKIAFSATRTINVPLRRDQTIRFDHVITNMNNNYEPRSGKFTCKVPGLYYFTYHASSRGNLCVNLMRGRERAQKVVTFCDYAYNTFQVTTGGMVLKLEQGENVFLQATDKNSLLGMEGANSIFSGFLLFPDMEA
T1 sequence (P02747 29-245, chain 3 of 3): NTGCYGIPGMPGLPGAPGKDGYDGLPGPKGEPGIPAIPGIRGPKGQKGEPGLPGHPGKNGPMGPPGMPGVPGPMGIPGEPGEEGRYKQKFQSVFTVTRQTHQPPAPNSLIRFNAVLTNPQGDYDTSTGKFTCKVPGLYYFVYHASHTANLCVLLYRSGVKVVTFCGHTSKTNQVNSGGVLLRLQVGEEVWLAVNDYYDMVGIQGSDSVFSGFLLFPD
Test: SPR; BIAcore 3000; PR3 immobilised on a CM5 chip by amine coupling; C1q, gC1q or cC1q as soluble analytes; 50 mM Tris, 150 mM NaCl, 2 mM Ca2+, 0.005% surfactant P20, pH 7.4; flow 20 µl/min; global fit to a 1:1 Langmuir model; apparent KD from koff/kon
Conditions: both partners purified

B1: Proteinase 3 (PR3), purified (enzyme, UniProt P24158 28-248, looked up)
chain: IVGGHEAQPHSRPYMASLQMRGNPGSHFCGGTLIHPSFVLTAAHCLRDIPQRLVNVVLGAHNVRTQEPTQQHFSVAQVFLNNYDAENKLNDVLLIQLSSPANLSASVATVQLPQQDQPVPHGTQCLAMGWGRVGAHDPPAQVLQELNVTVVTFFCRPHNICTFVPRRKAGICFGDSGGPLICDGIIQGIDSFVIWGCATRLFPDFFTRVALYVDWIRSTLR
notes: proteinase 3 (myeloblastin), neutrophil-derived serine protease; also called purified PR3; immobilized PR3; source: bought: Athens Research and Technology
Work on B1 yielded a Kd of 0.19 µM, a koff of 0.00151 s⁻¹ and a kon of 7800 M⁻¹ s⁻¹.
